Test results as given in patent US20150307555A1.

Legend:
[1] = molecular target: human V1b receptor (human) (UniProt P47901); test: cell-based or functional assay
[2] = molecular target: human V2 receptor (human) (UniProt P30518); test: cell-based or functional assay

Chain of human V1b receptor (human) (P47901 whole entry): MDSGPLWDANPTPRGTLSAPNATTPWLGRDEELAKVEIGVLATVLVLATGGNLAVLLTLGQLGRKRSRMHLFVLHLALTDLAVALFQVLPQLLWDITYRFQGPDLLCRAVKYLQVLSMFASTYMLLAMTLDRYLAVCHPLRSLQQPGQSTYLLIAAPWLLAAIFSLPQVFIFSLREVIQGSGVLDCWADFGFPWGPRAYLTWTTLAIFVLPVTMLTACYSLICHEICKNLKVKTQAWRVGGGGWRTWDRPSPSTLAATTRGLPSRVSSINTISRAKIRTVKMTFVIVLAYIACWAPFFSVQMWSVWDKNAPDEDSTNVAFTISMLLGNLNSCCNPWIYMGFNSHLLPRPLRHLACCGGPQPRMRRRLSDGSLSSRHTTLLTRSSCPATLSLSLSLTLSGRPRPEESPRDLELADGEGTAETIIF

Substance	% Efficacy hV1b-R [1] [%]	% Efficacy hV2-R [2] [%]	EC50 hV2-R [2] [nM]
Desmopressin, [1-deamino, 8-D-arginine]-vasopressin (peptide)	100	100	
Arginine Vasopressin (peptide; unit assumed)			0.04
[Val4]dDAVP (peptide; unit assumed)			0.05
[Val4]dDAVP (peptide)		89	
